Measurements reported in US20240150465A1 (Chugai, published 2024).
Changes are numbered by the printed parent chain. One block for each binder: values may come before it.

Assays:
[1] = target: T1, recombinant human DLL3 (human, UniProt Q9NYJ7 27-492); assay: Octet binning on SA sensor; Antibody A (biotinylated, loaded first): DL309-SG1; then 20 nM human DLL3, then 80 nM Antibody B
T1 sequence: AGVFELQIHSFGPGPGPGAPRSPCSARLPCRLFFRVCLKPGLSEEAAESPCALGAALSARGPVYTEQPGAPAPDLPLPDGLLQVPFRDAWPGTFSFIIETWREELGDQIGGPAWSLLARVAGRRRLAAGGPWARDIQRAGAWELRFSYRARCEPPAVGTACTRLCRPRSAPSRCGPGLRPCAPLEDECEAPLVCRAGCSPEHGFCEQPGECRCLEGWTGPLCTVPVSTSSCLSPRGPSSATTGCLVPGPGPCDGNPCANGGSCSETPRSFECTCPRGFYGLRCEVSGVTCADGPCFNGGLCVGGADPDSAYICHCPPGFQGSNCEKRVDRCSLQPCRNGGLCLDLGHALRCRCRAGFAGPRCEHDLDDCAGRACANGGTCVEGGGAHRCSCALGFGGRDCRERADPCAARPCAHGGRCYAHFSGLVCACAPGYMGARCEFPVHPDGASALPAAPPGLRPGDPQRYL
Method: (§1) Octet (registered trademark) RED384 (Fortebio) was used to perform competitive binding assays by epitope binning for a panel of antibodies. A biotinylated antibody (DL301-SG1, DL306-SG1, DL309-SG1, DL312-SG1, D30316AE02-SG1, and D30841AE05-SG1) at 40 nM was first loaded to a streptavidin (SA) biosensor. Next, the sensor is exposed to 20 nM of human DLL3, followed by exposure to 80 nM of second antibody. The second antibodies are DL301-SG1, DL306-SG1, DL309-SG1, DL312-SG1, D30316AE02-SG1, D30841AE05-SG1, DLL3-14-SG1, DLL3-22-SG1, DLL3-4-SG1 and DLL3-6-SG1. Raw data was processed using ForteBio's Data Analysis Software 7.0 and the antibody pairs were assessed for competitive binding. Additional binding by the second antibody indicates an unoccupied epitope (non-competitor), while no binding indicates epitope blocking (competitor).
(§2) The competition ratio of antibody B to antibody A was calculated using the following equation: Competition Ratio (Antibody B to Antibody A)=[Binding Response (Antibody B-Antigen)]/[Binding Response (Antigen-Antibody A)]

[2] = target: T1, recombinant human DLL3; assay: Octet binning on SA sensor; Antibody A (biotinylated, loaded first): DL301-SG1; then 20 nM human DLL3, then 80 nM Antibody B
Method: as §1, §2

[3] = target: T1, recombinant human DLL3; assay: Octet binning on SA sensor; Antibody A (biotinylated, loaded first): DL312-SG1; then 20 nM human DLL3, then 80 nM Antibody B
Method: as §1, §2

[4] = target: T1, recombinant human DLL3; assay: Octet binning on SA sensor; Antibody A (biotinylated, loaded first): D30841AE05-SG1; then 20 nM human DLL3, then 80 nM Antibody B
Method: as §1, §2

[5] = target: T1, recombinant human DLL3; assay: Octet binning on SA sensor; Antibody A (biotinylated, loaded first): D30316AE02-SG1; then 20 nM human DLL3, then 80 nM Antibody B
Method: as §1, §2

[6] = target: T1, recombinant human DLL3; assay: Octet binning on SA sensor; Antibody A (biotinylated, loaded first): DL306-SG1; then 20 nM human DLL3, then 80 nM Antibody B
Method: as §1, §2

[7] = target: recombinant human CD3eg protein (CD3 epsilon-gamma, heterodimer of CD3 epsilon and CD3 gamma) (human, UniProt P07766 23-126; P09693 23-116); assay: SPR Biacore 8K, 37 C, pH 7.4; bispecific captured on anti-human Fc, human CD3eg as analyte, 1:1 model
Method: (§3) Binding affinity of the anti-CD3 arm of the anti-DLL3/CD3 bispecific antibodies to CD3 at pH 7.4 was assessed at 37 degrees C. using Biacore 8K instrument (GE Healthcare). Anti-human Fc (GE Healthcare) was immobilized onto all flow cells of a CM4 sensor chip using amine coupling kit (GE Healthcare). The bispecific antibodies were captured onto the anti-Fc sensor surfaces, and then recombinant human CD3eg proteins (CD3 epsilon-gamma, heterodimer of CD3 epsilon and CD3 gamma) was injected over the flow cell. All antibodies and analytes were prepared in ACES pH 7.4 containing 20 mM ACES, 150 mM NaCl, 0.05% Tween 20, 0.005% NaN₃. Sensor surface was regenerated each cycle with 3M MgCl₂.

[8] = target: T2, Cynomolgus DLL3 ECD with Myc-tag on N-terminus and His-tag on C-terminus (cynomolgus); assay: SPR Biacore 8K, 37 C, pH 7.4; bispecific captured on anti-human Fc, DLL3 as analyte, 1:1 model
T2 construct: also called Myc-cynoDLL3-His; Cyno DLL3
T2 chain: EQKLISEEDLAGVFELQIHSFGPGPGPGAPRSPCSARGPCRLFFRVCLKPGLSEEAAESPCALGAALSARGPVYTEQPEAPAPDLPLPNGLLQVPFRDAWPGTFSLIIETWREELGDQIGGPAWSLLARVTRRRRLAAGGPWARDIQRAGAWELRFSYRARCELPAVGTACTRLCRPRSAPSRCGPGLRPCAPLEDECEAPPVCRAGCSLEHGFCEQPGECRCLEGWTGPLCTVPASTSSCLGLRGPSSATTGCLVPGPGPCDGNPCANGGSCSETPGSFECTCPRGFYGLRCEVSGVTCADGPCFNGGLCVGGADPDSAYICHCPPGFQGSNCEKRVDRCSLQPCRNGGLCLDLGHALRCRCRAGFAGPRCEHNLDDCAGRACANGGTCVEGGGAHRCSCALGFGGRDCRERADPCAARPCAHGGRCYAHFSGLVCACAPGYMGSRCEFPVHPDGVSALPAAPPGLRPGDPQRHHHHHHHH
Method: as §3, with “of anti-DLL3” for “of the anti-CD3”, “arm in” for “arm of”, “anti-DLL3/CD3” for “anti-DLL3/CD3 bispecific”, “to human or cynomolgus DLL3” for “to CD3”, “7.4 were” for “7.4 was”, “human or cynomolgus DLL3” for “human CD3eg proteins (CD3 epsilon-gamma, heterodimer of CD3 epsilon and CD3 gamma)”

[9] = target: T1, recombinant human DLL3; assay: as above
Method: as §3, with “of anti-DLL3” for “of the anti-CD3”, “arm in” for “arm of”, “anti-DLL3/CD3” for “anti-DLL3/CD3 bispecific”, “to human or cynomolgus DLL3” for “to CD3”, “7.4 were” for “7.4 was”, “human or cynomolgus DLL3” for “human CD3eg proteins (CD3 epsilon-gamma, heterodimer of CD3 epsilon and CD3 gamma)”

recombinant human CD3eg protein (CD3 epsilon-gamma, heterodimer of CD3 epsilon and CD3 gamma), sequence (P07766 23-126 limits assumed, chain 1 of 2): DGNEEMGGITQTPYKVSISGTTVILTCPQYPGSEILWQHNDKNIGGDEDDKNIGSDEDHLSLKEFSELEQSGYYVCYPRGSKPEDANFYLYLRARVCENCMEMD
recombinant human CD3eg protein (CD3 epsilon-gamma, heterodimer of CD3 epsilon and CD3 gamma), sequence (P09693 23-116 limits assumed, chain 2 of 2): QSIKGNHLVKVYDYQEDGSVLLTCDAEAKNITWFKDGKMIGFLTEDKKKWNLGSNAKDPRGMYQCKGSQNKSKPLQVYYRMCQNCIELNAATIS

competition ratio (Antibody B to Antibody A) [1]: 1
competition ratio (Antibody B to Antibody A) [2]: 1.2
competition ratio (Antibody B to Antibody A) [3]: 1.3
competition ratio (Antibody B to Antibody A) [4]: 1.3
competition ratio (Antibody B to Antibody A) [5]: 1.3
competition ratio (Antibody B to Antibody A) [6]: 1.3
B1: DLL3-6-SG1 (antibody, human IgG1, kappa, V domains shown)
VH: QVQLQESGPGLVKPSETLSLTCTVSGASISSFYWSWIRQPPGKGLEWIGYIYYSGTTNYNPSLKSRVTISVDTSKNQFSLKLSSVTAADTAVYYCARIAVAGFFFDYWGQGTLVTVSS
VL: EIVLTQSPGTLSLSPGERATLSCRASQSVNKNYLAWYQQKPGQAPRLLIYGASSRATGIPDRFSGSGSGTDFTLTISRLEPEDFAVYYCQQYDRSPLTFGGGTKVEIKR
notes: Variable regions of a previously reported anti-DLL3 antibody on SG1/SK1; Used as a second antibody only

competition ratio (Antibody B to Antibody A) [1]: 0.9
competition ratio (Antibody B to Antibody A) [2]: 1.2
competition ratio (Antibody B to Antibody A) [3]: 1.3
competition ratio (Antibody B to Antibody A) [4]: 1.3
competition ratio (Antibody B to Antibody A) [5]: 1.3
competition ratio (Antibody B to Antibody A) [6]: 1.3
B2: DLL3-22-SG1 (antibody, human IgG1, kappa, V domains shown)
VH: B1 VH with A27D, F32Y, S35T, N76S, R97S, A101R
VL: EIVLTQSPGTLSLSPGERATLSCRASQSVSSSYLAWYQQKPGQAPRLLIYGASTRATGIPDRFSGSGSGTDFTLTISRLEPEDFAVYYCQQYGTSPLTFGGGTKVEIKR
notes: as for B1

competition ratio (Antibody B to Antibody A) [1]: 1
competition ratio (Antibody B to Antibody A) [2]: 1.2
competition ratio (Antibody B to Antibody A) [3]: 1.3
competition ratio (Antibody B to Antibody A) [4]: 1.3
competition ratio (Antibody B to Antibody A) [5]: 1.3
competition ratio (Antibody B to Antibody A) [6]: 1.3
B3: DLL3-4-SG1 (antibody, human IgG1, kappa, V domains shown)
VH: B1 VH with A27G, F32Y, I51V, R97S, A101T, F104Y
VL: B1 VL with A19V, S28R, K31N, K40R, V105L
notes: as for B1

competition ratio (Antibody B to Antibody A) [1]: 0.9
competition ratio (Antibody B to Antibody A) [2]: 1.1
competition ratio (Antibody B to Antibody A) [3]: 1.2
competition ratio (Antibody B to Antibody A) [4]: 0
competition ratio (Antibody B to Antibody A) [5]: 1.5
competition ratio (Antibody B to Antibody A) [6]: 0
B4: DL306-SG1 (antibody, human IgG1, kappa, V domains shown)
VH: EVQLQQSGPELVKPGASVKMSCRASGYTFTDYYMKWVKQSHGKSLEWIGDINPNNGDTFYNQKFKGKATLTIDKSSSTAYMQLNSLTSDDSAVYYCARDGNYAYFDYWGQGTTLTVSS
VL: DIVLTQSPASLAVSLGQRATISCRASKSVSTSGYSYMHWYQQKPGQPPKLLIFLASNLESGVPARFSGSGSGTDFTLNIHPVEEEDAATYYCQHSRHLPWTFGGGTKLEIKR
notes: Variable regions of a previously reported anti-DLL3 antibody on SG1/SK1; Also used biotin-labelled as a first antibody

competition ratio (Antibody B to Antibody A) [1]: -0.1
competition ratio (Antibody B to Antibody A) [2]: 1.4
competition ratio (Antibody B to Antibody A) [3]: 1.5
competition ratio (Antibody B to Antibody A) [4]: 1.5
competition ratio (Antibody B to Antibody A) [5]: 1.4
competition ratio (Antibody B to Antibody A) [6]: 1.4
B5: DL309-SG1 (antibody, human IgG1, kappa, V domains shown)
VH: QVQLQQSGGDLMKPGASVKISCKAAGYTFSNYYIEWVKQRPGHGLEWIGEILPGSGSTTYNEKFKGKASFTADTSSNTAYMQLSSLTSEDSAVYYCARWGAREPGFPYWGQGTLVTVSA
VL: DIVMTQSQKFMSTSVGDRVSVTCKASQNVGTNVAWYQQKPGQSPKALIYSASYRYSGVPDRFTGSGSGTDFTLTISNVQSEDLAEYFCQQYNNYPLTFGAGTKLELKR
notes: as for B4

competition ratio (Antibody B to Antibody A) [1]: 1.2
competition ratio (Antibody B to Antibody A) [2]: -0.1
competition ratio (Antibody B to Antibody A) [3]: 1.3
competition ratio (Antibody B to Antibody A) [4]: 1.3
competition ratio (Antibody B to Antibody A) [5]: 1.3
competition ratio (Antibody B to Antibody A) [6]: 1.3
B6: DL301-SG1 (antibody, human IgG1, kappa, V domains shown)
VH: QVQLQQSGADLVRPGTSVKVSCKASGYAFTNYLIEWIKQRPGQGLEWIGVMNPGSGGTHYSEKFRGKATLTADKSSSTAYMQLISLTSDDSAVYFCARSDYDYVTYAMDYWGQGTSVTVSS
VL: DIKMTQSPSSMYASLGERVTITCKASQDINSYLIWFQQKPGKSPKTLIYRTNRLVDGVPSRFSGSGSGQDYSLTISSLEYGDMGIYYCLQYDEFPFTFGSGTKLEIKR
notes: as for B4

Kd [7]: 127 nM
koff [7]: 0.0169 s⁻¹
kon [7]: 134000 M⁻¹ s⁻¹
Kd [8]: 0.0117 nM
koff [8]: 2.72e-05 s⁻¹
kon [8]: 2.32e+06 M⁻¹ s⁻¹
Kd [9]: 0.0261 nM
koff [9]: 6.11e-05 s⁻¹
kon [9]: 2.34e+06 M⁻¹ s⁻¹
B7: D30316AE03/TR01 (bispecific antibody, V domains shown)
VH 1: EVQLVESGGGLVQPGGSLRLSCAASGFTFSNYGVSWVRQAPGQGLEWMGYIDIAFGRTYYASWVTGRITINPDTSKNQFSLQLNSVTPEDTAVYYCARVALVVAGVAYYGMDVWGQGTLVTVSS
VL 1: DIVMTQSPDSLAVSLGERATINCQASQNIYSYLSWYQQKPGKAPKLLIYRTSTLASGVPDRFSGSGSGTDFTLKISRVEAEDVGVYYCQSYYYSSGSSYGAFAFGQGTKVEIK
VH 2: QVQLVESGGGVVQPGGSLRLSCAASGFTFSNAWMHWVRQAPGKGLEWVAQIKDKSQNYATYVAESVKGRFTISRADSKNSIYLQMNSLKTEDTAVYYCRYVHYAAGYGVDIWGQGTTVTVSS
VL 2: DIVMTQSPLSLPVTPGEPASISCRSSQPLVHSNRNTYLHWYQQKPGQAPRLLIYKVSNRFSGVPDRFSGSGSGTDFTLKISRVEAEDVGVYYCGQGTQVPYTFGQGTKLEIK
notes: IgG-type anti-DLL3/CD3 bispecific made by Fab arm exchange

competition ratio (Antibody B to Antibody A) [1]: 1.1
competition ratio (Antibody B to Antibody A) [2]: 1
competition ratio (Antibody B to Antibody A) [3]: 0.2
competition ratio (Antibody B to Antibody A) [4]: 1.4
competition ratio (Antibody B to Antibody A) [5]: 1.4
competition ratio (Antibody B to Antibody A) [6]: 1.4
B8: DL312-SG1 (antibody, human IgG1, kappa, V domains shown)
VH: EVKLVESGGGLVQPGGSLSLSCAASGFTFTDYYMNWVRQPPGKALEWLALIRNKANGYTTEYNASVKGRFTISRDNSQNILYLQMNALRAEDSATYYCARDSDGYYEYYFDYWGQGTTLTVSS
VL: DIQMTQSPSSLSASLGERVSLTCRASQEISDYLSWLQQKPDGTIKRLIFAASTLDSGVPKRFSGSRSGSDFSLSISSLESEDFADYYCLQYASYPYTFGSGTKLEIKR
notes: as for B4
